Results on nine molecules are retold here after PMC11093223, “Cargo selective vesicle tethering: The structural basis for binding of specific cargo proteins by the Golgi tether component TBC1D23” (Science Advances, 2024).

Holding throughout (details): both partners purified
Assay [1] deals with T1, Mouse TBC1D23 (559-684), C-terminal domain (mouse, UniProt Q8K0F1 559-684).
T1 construct: TBC1D23, mouse, UniProt Q8K0F1 (684 residues), C-terminal domain, residues 559-684; also called TBC1D23 C-terminal domain; TBC1D23 full length C-terminal domain; source: E. coli BL21 plyS, purified (glutathione-Sepharose, thrombin cleavage, Superdex 200 gel filtration)
T1 sequence (Q8K0F1 559-684): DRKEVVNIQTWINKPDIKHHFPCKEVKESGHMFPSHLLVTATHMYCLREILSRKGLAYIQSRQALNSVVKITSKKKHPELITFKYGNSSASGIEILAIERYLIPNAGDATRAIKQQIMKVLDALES
Description: ITC; peptide (0.8 to 5 mM) titrated into 100 uM TBC1D23 C-terminal domain, 20 injections of 2.4 ul; 20°C; 100 mM NaCl, 100 mM tris pH 7.4, 1 mM TCEP; mean of three runs. For orientation: ITC needs no label: the signal is the heat of the interaction.

Assay [2] concerns the target T2, TBC1D23 C-terminal domain I675W (mouse, UniProt Q8K0F1 559-677, I675W).
T2 construct: TBC1D23, mouse, UniProt Q8K0F1, C-terminal domain (limits as m7, in data S3); source: E. coli BL21 plyS, purified (glutathione-Sepharose, GST cleaved with thrombin, Superdex 200)
Nature of the assay: ITC; peptide (0.8 to 5 mM) titrated into 100 μM TBC1D23 C-terminal domain, 20°C, 100 mM NaCl, 100 mM tris pH 7.4, 1 mM TCEP, Nano ITC.

For assay [3], the target named is T3, TBC1D23 C-terminal domain K672A (mouse, UniProt Q8K0F1 559-677, K672A).
T3 construct: TBC1D23, mouse, UniProt Q8K0F1, C-terminal domain (limits as m7, in data S3); source: E. coli BL21 plyS, purified (glutathione-Sepharose, GST cleaved with thrombin, Superdex 200)
T3 sequence (Q8K0F1 559-677 K672A): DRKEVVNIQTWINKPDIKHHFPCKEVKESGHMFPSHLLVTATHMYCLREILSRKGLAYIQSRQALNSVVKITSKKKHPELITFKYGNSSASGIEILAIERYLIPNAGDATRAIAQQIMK
The assay is described as above.

Assay [4] concerns the target T4, TBC1D23 C-terminal domain (mouse, UniProt Q8K0F1 559-684).
T4 construct: TBC1D23, mouse, UniProt Q8K0F1, C-terminal domain ending with VLDALES at residue 684; used for ITC and for the 3.3 Å crystals; also called the C-terminal domain; TBC1D23 full-length C-terminal domain; source: E. coli BL21 plyS, purified (glutathione-Sepharose, GST cleaved with thrombin, Superdex 200)
The description is as above.

T4 sequence (Q8K0F1 559-684): as the sequence (Q8K0F1 559-684) above
T2 sequence (Q8K0F1 559-677 I675W): as the sequence (Q8K0F1 559-677 K672A) above, with A114K, I117W counted along it

B1: syntaxin-16 peptide L213A (peptide)
peptide: DDNTAYHRGFTED
notes: syntaxin-16, human, residues 209-221 with L213A
What is called Kd is a measure of binding affinity in units of concentration. Low values mean tighter binding, high ones weaker binding. In turn, B1 had a Kd in assay [1] of over 200 µM.

B2: syntaxin-16 peptide Y214W (peptide)
peptide: DDNTLWHRGFTED
notes: syntaxin-16, human, residues 209-221 with Y214W
In turn, B2 yielded a Kd in assay [1] of 5.6 µM.

B3: syntaxin-16 peptide L213F (peptide)
peptide: DDNTFYHRGFTED
notes: syntaxin-16, human, residues 209-221 with L213F
For B3, in assay [1], the Kd came out at 150 µM.

B4: syntaxin-16 peptide Y214F (peptide)
peptide: DDNTLFHRGFTED
notes: syntaxin-16, human, residues 209-221 with Y214F
In turn, B4 displayed a Kd in assay [1] of 15.5 µM.

B5: syntaxin-16 peptide T212S (peptide)
peptide: DDNSLYHRGFTED
notes: syntaxin-16, human, residues 209-221 with T212S
As for B5, the Kd in assay [1] was 30.1 µM.

B6: syntaxin-16 (209–221) peptide (peptide, UniProt O14662 209-221, looked up)
peptide: DDNTLYHRGFTED
notes: syntaxin-16, human, residues 209 to 221, beginning 209DDNTLY (T212, L213, Y214, R216); also called syntaxin-16 peptide; wild type; source: peptide
The stoichiometry N is a count of units in the complex or per binding partner. Consider B6, for which the Kd in assay [2] is over 300 µM; in assay [3], about 30 µM; in assay [4] it was about 1.4 µM. Moreover, the “stoichiometry N” value in assay [4] amounted to 1.

B7: syntaxin-16 peptide Y214F (peptide, UniProt O14662 209-221, looked up)
peptide: DDNTLFHRGFTED
notes: syntaxin-16, human, peptide 209 to 221 as m28; source: peptide
B7 registered a Kd in assay [4] of about 15 µM.

B8: syntaxin-16 peptide Y214W (peptide, UniProt O14662 209-221, looked up)
peptide: DDNTLWHRGFTED
notes: as for B7
In turn, B8 registered a Kd in assay [4] of about 7 µM.

B9: syntaxin-16 peptide T212S (peptide, UniProt O14662 209-221, looked up)
peptide: DDNSLYHRGFTED
notes: as for B7
On to B9, for which, in assay [4], the Kd was about 30 µM.
